Data published in article PMC2935386, “Dissecting the Relation between a Nuclear Receptor and GATA: Binding Affinity Studies of Thyroid Hormone Receptor and GATA2 on TSHβ Promoter” (PLoS ONE, 2010).

Target: T1, human TRβ1ΔAB (TR DBD-LBD), thyroid hormone receptor β1 residues 102-461 (human, UniProt P10828-1 102-461)
T1 construct: Holo form (T3/TR) made by adding T3 in 3 times molar excess; also called TR DL; TRβ1 DL
T1 sequence (looked up): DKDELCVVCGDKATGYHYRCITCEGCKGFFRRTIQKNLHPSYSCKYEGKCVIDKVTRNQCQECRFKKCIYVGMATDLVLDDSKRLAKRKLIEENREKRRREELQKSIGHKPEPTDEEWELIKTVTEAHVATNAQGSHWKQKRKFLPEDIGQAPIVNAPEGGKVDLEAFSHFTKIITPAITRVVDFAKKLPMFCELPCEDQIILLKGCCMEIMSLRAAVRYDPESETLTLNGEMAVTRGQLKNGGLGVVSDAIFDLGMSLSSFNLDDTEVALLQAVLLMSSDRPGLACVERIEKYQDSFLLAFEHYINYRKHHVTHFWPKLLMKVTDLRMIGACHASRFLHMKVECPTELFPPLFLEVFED
Experiment: fluorescence polarisation; fluorescence anisotropy; 10nM fluorescein-labeled GATA2-Zf titrated with unlabeled, unliganded TR DBD-LBD or TR DBD, 1nM to 10.000nM; 10°C, 50mM NaCl, 20mM Hepes pH8.0, 3mM dithiothreitol, 5% glycerol
Settings: both partners purified

Kd: 1170 nM
B1: fluorescein-labelled zinc finger region of GATA2 (GATA2-Zf), residues 291-412 (domain or fragment)
chain: not shown
modifications: fluorescein (fluorescein-isothiocyanate, three times molar excess; site not stated)
notes: GATA2, zinc finger region, residues 291-412; removal of the His tag is surmised from that; Two vectors are named (pET31a, pET28a(+)); also called fluorophore-labelled GATA2-Zf; fluorescein-labeled GATA2-Zf
